Biological target: FGF-1a produced in E. coli (human) (UniProt P05230)
Settings: scale: % band intensity remaining after 0.01% trypsin

For trypsin (enzyme), the intensity of the remaining band after trypsin treatment (SDS-denatured electrophoresis, blot) was 6.

— patent US7005415B1
